One may read the stoichiometry N as a count of units in the complex or per binding partner.

The values below come from paper PMC9208311.

This test concerns the target zebrafish procaspase-3b (CP-C117S) (zebrafish (Danio rerio)). Briefly: SEC; Superdex75 Increase 10/300GL, 25 uM protein, 100 ul loaded, dialysed ~16 h at 25°C; citrate buffer pH 5, 6 and 6.5, phosphate buffer pH 7.5 and 8; column standardised with LMW calibration kit. On the technique in general: SEC sorts molecules by how far they enter the pores of the column.

Regarding “zebrafish procaspase-3b (CP-C117S) (enzyme)”, the stoichiometry N is 2.
